Data published in patent US20200139098A1, “DELIVERY SYSTEM AND PROCESS” (POLYPHARMA PTY LTD, priority 2006, published 2020).

Tested on: rabbit eyes
Test: Distribution of Avastin in sectioned rabbit eyes by fluorescence and DIC microscopy, after intravitreal injection or sonophoresis from a hydrogel
Assay type: in vivo
Source text: As described above, the delivery system or device can be used to deliver molecules and/or nanoparticles to the eye of a patient. Once delivered to the surface of the eye, the molecules and/or nanoparticles can penetrate the outer surface of the eye and diffuse to the posterior parts of the eye. For example, FIGS. 14 to 19 are optical microscope images of sectioned rabbit eyes imaged by Differential Interference Contrast (DIC) phase contrast imaging and fluorescence imaging, illustrating the distribution of the monoclonal antibody Avastin to various parts of the eye. Each of these six Figures includes two panels, comprising a left-hand panel showing a fluorescence image, and a right-hand panel showing a white light DIC phase contrast image. FIGS. 14 to 16 illustrate the distribution of Avastin delivered by intravitreal injection, whereas FIGS. 17 to 19 show the distribution of Avastin delivered from a hydrogel by sonophoresis of five minute duration. The red colour in the fluorescence images indicates a secondary antibody bound to Avastin. Consequently, the red colour indicates the location of Avastin in the tissues of the eye.
The vitreous humor is not visible in the “white-light” DIC images because the sections are mounted on the slides using a 90% glycerol solution in order to stabilise the cover slip and the section during the confocal microscopy. The glycerol has a similar refractive index to the vitreous humor.

## Avastin: the monoclonal antibody Avastin
Rabbit eye (LE), Sonoactuator: hydrogel, sonophoresis of five minute duration
  presence of Avastin in vitreous humor (staining): not visibly stained
Rabbit eye (RE), intravitreal injection
  presence of Avastin in vitreous (red staining): abundant presence
Rabbit eye, delivery from the gel with ultrasound
  staining of ciliary body for Avastin: does not stain well
Rabbit eye, intravitreal injection
  staining of ciliary body and iris for Avastin: heavily stained
Rabbit eye, non-invasive delivery from hydrogel under ultrasonic stimulation (FIGS. 17 to 19)
  delivery of Avastin to choroid and retina: non-invasively delivered to the choroid and retina
